These results are taken from patent US20260272979A1 (CHINEO MEDICAL TECHNOLOGY, published 2026).

Changes are numbered by the printed parent chain.

First the molecules themselves.
T1: PD-L2 fuse-expressed with an Fc derived from human IgG1 (human, UniProt Q9BQ51 20-219, limits assumed)
T1 construct: Bought reagent; also called hPD-L2-Fc; not shown: Fc of human IgG1
T1 sequence (looked up): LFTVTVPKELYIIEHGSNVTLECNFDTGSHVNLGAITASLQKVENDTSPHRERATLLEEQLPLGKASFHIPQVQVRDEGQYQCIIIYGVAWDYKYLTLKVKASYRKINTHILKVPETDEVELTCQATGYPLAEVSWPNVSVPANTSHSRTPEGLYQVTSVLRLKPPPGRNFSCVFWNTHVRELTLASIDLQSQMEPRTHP

B1: Toripalimab (antibody, V domains shown)
VH: QGQLVQSGAEVKKPGASVKVSCKASGYTFTDYEMHWVRQAPIHGLEWIGVIESETGGTAYNQKFKGRVTITADKSTSTAYMELSSLRSEDTAVYYCAREGITTVATTYYWYFDVWGQGTTVTVSS
VL: DVVMTQSPLSLPVTLGQPASISCRSSQSIVHSNGNTYLEWYLQKPGQSPQLLIYKVSNRFSGVPDRFSGSGSGTDFTLKISRVEAEDVGVYYCFQGSHVPLTFGQGTKLEIKR
B2: PD-1 variant PD1_56#-16 on cells (receptor)
chain: PGWFLDSPDRPWNPPTFSPALLVVTEGDNATFTCSFSNTSESFVLNWYRMSPSNQTDKLAAFPEDFFTVSQDCRFRVTQLPNGRDFHMSVVRARRNDSGTYLCGAISLSTPVWIKESLRAELRVTERRAEVPTAHPSPSPRPAGQFQTLVVGVVGGLLGSLVLLVWVLAVIRSKRSRLLHSDYMNMTPRRPGPTRKHYQPYAPPRDFAAYRS
notes: On 293T cells and human T cells, from pLV2-PD1-CD28; signal peptide 1-20 left out; also called Mut5
B3: PD-1 variant PD1_56#-108 on cells (receptor)
chain: B2 chain with F66R, F67I, T68N, V69R
notes: On 293T cells and human T cells, from pLV2-PD1-CD28; signal peptide 1-20 left out; also called Mut6
B4: Seq No. 2-RFc (PD-1 variant PD1_56# fused to rabbit IgG Fc) (Fc fusion)
chain: PGWFLDSPDRPWNPPTFSPALLVVTEGDNATFTCSFSNTSESFVLNWYRMSPSNQTDKLAAFPEDRSQPGQDCRFRVTQLPNGRDFHMSVVRARRNDSGTYLCGAISLSTPVWIKESLRAELRVTERRAEVPTAH
notes: Signal peptide 1-20 left out; also called variant 1; Mut1/56#; not shown: rabbit IgG Fc (RFc) of vector pcDNA3.4-RFc
B5: Seq No. 5-RFc (PD-1 variant PD1_56#-15 fused to rabbit IgG Fc) (Fc fusion)
chain: B4 chain with R66F, S67R, Q68N, P69C, G70T
notes: Signal peptide 1-20 left out; also called variant 4; Mut4/56#-15; not shown: rabbit IgG Fc (RFc) of vector pcDNA3.4-RFc
B6: Seq No. 6-RFc (PD-1 variant PD1_56#-16 fused to rabbit IgG Fc) (Fc fusion)
chain: B4 chain with R66F, S67F, Q68T, P69V, G70S
notes: Signal peptide 1-20 left out; several higher bands in non-reducing SDS-PAGE; also called variant 5; PD1 variant 5 (56#-16); not shown: rabbit IgG Fc (RFc) of vector pcDNA3.4-RFc
B7: Seq No. 4-RFc (PD-1 variant PD1_56#-3 fused to rabbit IgG Fc) (Fc fusion)
chain: B4 chain with E64W, D65M, R66F, S67C, Q68F
notes: Signal peptide 1-20 left out; several higher bands in non-reducing SDS-PAGE; also called variant 3; Mut3/56#-3; not shown: rabbit IgG Fc (RFc) of vector pcDNA3.4-RFc
B8: Seq No. 3-RFc (PD-1 variant PD1_56#-2 fused to rabbit IgG Fc) (Fc fusion)
chain: B4 chain with E64F, D65L, R66F, S67N, Q68L
notes: Signal peptide 1-20 left out; several higher bands in non-reducing SDS-PAGE; also called variant 2; Mut2/56#-2; not shown: rabbit IgG Fc (RFc) of vector pcDNA3.4-RFc
B9: Seq No. 7-RFc (PD-1 variant PD1_56#-108 fused to rabbit IgG Fc) (Fc fusion)
chain: B4 chain with S67I, Q68N, P69R, G70S
notes: Signal peptide 1-20 left out; also called variant 6; not shown: rabbit IgG Fc (RFc) of vector pcDNA3.4-RFc

Test [1] concerns the target Seq No. 2-RFc (PD-1 variant PD1_56# fused to rabbit IgG Fc) (human; rabbit) (UniProt Q15116). The test is described as follows: SPR Biacore T200; antibody stationary phase. For orientation: Surface plasmon resonance follows binding to a sensor surface in real time, without labels.
For test [2], the target named is Seq No. 7-RFc (PD-1 variant PD1_56#-108 fused to rabbit IgG Fc) (human; rabbit) (UniProt Q15116). The test is described as follows: SPR Biacore T200; antibody stationary phase.
Test [3] concerns the target Seq No. 5-RFc (PD-1 variant PD1_56#-15 fused to rabbit IgG Fc) (human; rabbit) (UniProt Q15116). Description: SPR Biacore T200; antibody stationary phase.
For test [4], the target named is Seq No. 1-RFc (wild-type PD-1 fused to rabbit IgG Fc) (human; rabbit) (UniProt Q15116). The test is described as follows: SPR Biacore T200; antibody stationary phase.
Test [5] has as its target Seq No. 6-RFc (PD-1 variant PD1_56#-16 fused to rabbit IgG Fc) (human; rabbit) (UniProt Q15116). Description: SPR Biacore T200; antibody stationary phase.
Test [6] deals with Seq No. 3-RFc (PD-1 variant PD1_56#-2 fused to rabbit IgG Fc) (human; rabbit) (UniProt Q15116). The test is described as follows: SPR Biacore T200; antibody stationary phase.
The target in test [7] is Seq No. 4-RFc (PD-1 variant PD1_56#-3 fused to rabbit IgG Fc) (human; rabbit) (UniProt Q15116). The test is described as follows: SPR Biacore T200; antibody stationary phase.
The target of test [8] is wild-type human PD-1 (hPD-1) on cells (human). Description: cell-based or functional assay.
Test [9] deals with Seq No. 2-RFc (PD-1 variant PD1_56# fused to rabbit IgG Fc) (human; rabbit) (UniProt Q15116). The test is described as follows: SPR Biacore T200.
In test [10] the target is Seq No. 7-RFc (PD-1 variant PD1_56#-108 fused to rabbit IgG Fc) (human; rabbit) (UniProt Q15116). Description: SPR Biacore T200.
The target in test [11] is Seq No. 5-RFc (PD-1 variant PD1_56#-15 fused to rabbit IgG Fc) (human; rabbit) (UniProt Q15116). The test is described as follows: SPR Biacore T200.
For test [12], the target named is Seq No. 1-RFc (wild-type PD-1 fused to rabbit IgG Fc) (human; rabbit) (UniProt Q15116). Description: SPR Biacore T200.
The target of test [13] is Seq No. 6-RFc (PD-1 variant PD1_56#-16 fused to rabbit IgG Fc) (human; rabbit) (UniProt Q15116). Description: SPR Biacore T200.
In test [14] the target is Seq No. 3-RFc (PD-1 variant PD1_56#-2 fused to rabbit IgG Fc) (human; rabbit) (UniProt Q15116). The test is described as follows: SPR Biacore T200.
Test [15] deals with Seq No. 4-RFc (PD-1 variant PD1_56#-3 fused to rabbit IgG Fc) (human; rabbit) (UniProt Q15116). Description: SPR Biacore T200.
Test [16] has as its target B4. The test is described as follows: SPR Biacore T200.
In test [17] the target is T1, PD-L2 fuse-expressed with an Fc derived …. The test is described as follows: flow cytometry, human T cells. Background: In flow cytometry, cells or beads pass a laser one at a time.
In test [18] the target is T2, PD-L1 fuse-expressed with an Fc derived from human IgG1 (human, UniProt Q9NZQ7 19-239).
T2 construct: Bought reagent; also called PD-L1-Fc; hPD-L1-Fc; not shown: Fc of human IgG1
T2 sequence (Q9NZQ7 19-239 limits assumed): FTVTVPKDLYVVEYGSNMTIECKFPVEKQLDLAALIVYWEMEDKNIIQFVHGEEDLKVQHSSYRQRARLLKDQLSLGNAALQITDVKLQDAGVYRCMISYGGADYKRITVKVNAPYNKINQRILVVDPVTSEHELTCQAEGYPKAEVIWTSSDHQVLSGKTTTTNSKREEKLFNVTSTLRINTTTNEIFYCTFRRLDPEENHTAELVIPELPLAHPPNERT
Description: flow cytometry, human T cells.

The target in test [19] is T1, PD-L2 fuse-expressed with an Fc derived …. Description: SPR Biacore T200.
Test [20] addresses T2, PD-L1 fuse-expressed with an Fc derived …. Description: SPR Biacore T200.
Test [21] deals with T1, PD-L2 fuse-expressed with an Fc derived …. Description: SPR Biacore T200; PD1-RFc mobile phase.
The target in test [22] is T2, PD-L1 fuse-expressed with an Fc derived …. The test is described as follows: SPR Biacore T200; PD1-RFc mobile phase.

With Tilelizumab (antibody), the koff in [1] came out at 0.000174 s⁻¹; in test [2], 0.000109 s⁻¹; in [3] it was 0.0003 s⁻¹; in [4], 4.21e-05 s⁻¹; in test [5], 0.000836 s⁻¹; in test [6], 0.00105 s⁻¹. The koff in test [7] was determined as 0.00203 s⁻¹. The on-rate constant (kon) in [1] came to 2.05e+06 M⁻¹ s⁻¹; in [2], 2.21e+06 M⁻¹ s⁻¹; in test [3], 530000 M⁻¹ s⁻¹; in test [4], 3.12e+06 M⁻¹ s⁻¹; in [5] it was 2.66e+06 M⁻¹ s⁻¹; in [6], 588000 M⁻¹ s⁻¹. The same molecule displayed an on-rate (kon) in test [7] of 691000 M⁻¹ s⁻¹. The IL-2 concentration (pg/ml) at 0.8 nM in test [8] amounted to 432 pg/mL. The molecule also returned an IL-2 concentration (pg/ml) at 1.6 nM in test [8] of 440 pg/mL. The IL-2 concentration (pg/ml) at 3.2 nM in test [8] was determined as 440 pg/mL. In test [8], the IL-2 concentration (pg/ml) at 6.4 nM was 56.1 pg/mL. Besides, the IL-2 concentration (pg/ml) at 12.8 nM in [8] was determined as 36.9 pg/mL. The IL-2 concentration (pg/ml) at 25.6 nM in [8] amounted to 47.7 pg/mL. Also, in test [8], the IL-2 concentration (pg/ml) at 51.2 nM was found to be 80.5 pg/mL. For the same molecule, the IL-2 concentration (pg/ml) at 102.4 nM in test [8] is 126 pg/mL. Also, the dissociation constant Kd in test [9] worked out at 0.085 nM; in test [10] it was 0.0492 nM; in [11], 0.567 nM; in test [12] it was 0.0135 nM; in test [13], 0.315 nM; in test [14], 1.78 nM. Besides, the dissociation constant Kd in test [15] was found to be 2.94 nM.

For the molecule B1, the affinity in test [16], expressed as Kd, was 0.395 nM.

Take B2: the binding result in test [17] and in [18] was “binds” throughout.

As for B3, the binding result in test [17] and in test [18] was “binds” each time.

B4: the Kd is 1.17 nM in test [19] and 0.457 nM in [20]. For the same molecule, the koff in test [21] turned out to be 0.00657 s⁻¹; in [22], 0.00129 s⁻¹. For the same molecule, the kon in test [21] was found to be 5.6e+06 M⁻¹ s⁻¹; in test [22], 2.82e+06 M⁻¹ s⁻¹.

B5: the results for the Kd in test [19] and in [20] were 4.53 nM and 2.25 nM, respectively. The off-rate (koff) in [21] is 0.0096 s⁻¹; in [22], 0.00343 s⁻¹. In addition, the kon in [21] is 2.12e+06 M⁻¹ s⁻¹; in test [22], 1.52e+06 M⁻¹ s⁻¹.

B6: the Kd in test [19] came out at 0.798 nM; in test [20], 0.657 nM. Moreover, the off-rate (koff) in test [21] came to 0.00483 s⁻¹; in [22], 0.00153 s⁻¹. Besides, the on-rate constant (kon) in [21] came to 6.05e+06 M⁻¹ s⁻¹; in test [22] it was 2.32e+06 M⁻¹ s⁻¹.

Take B7: the dissociation constant Kd was 296 nM in [19] and 39.6 nM in test [20]. Also, the figures for the dissociation rate constant (koff) in test [21] and in test [22] were 0.0019 s⁻¹ and 0.00266 s⁻¹, respectively. Further, the kon in test [21] was 6420 M⁻¹ s⁻¹; in test [22], 67400 M⁻¹ s⁻¹.

As for B8, the Kd worked out at 0.00296 nM in [19] and 4.12 nM in test [20]. Moreover, the koff in test [21] came out at 1.25e-05 s⁻¹. The kon in [21] was 4.22e+06 M⁻¹ s⁻¹.

With B9, the Kd in test [19] was determined as 0.336 nM; in test [20] it was 0.384 nM. For the same molecule, the results for the off-rate constant (koff) in test [21] and in test [22] were 0.00356 s⁻¹ and 0.000771 s⁻¹, respectively. For the same molecule, the kon in test [21] was found to be 1.06e+07 M⁻¹ s⁻¹; in test [22], 2.01e+06 M⁻¹ s⁻¹.

Usually koff stands for the rate constant with which the complex falls apart. A low value points to a long-lived complex. As usually defined, the kon is a measure of how fast the partners come together. Low values mean slower complex formation, high ones faster complex formation. For orientation: Kd means the equilibrium constant for the complex coming apart. A lower Kd goes with tighter binding.
